Values quoted from earlier work, collected in paper PMC3197216.

Legend:
[1] = molecular target: GluA3 ATD (Rattus norvegicus) (UniProt P19492)
[2] = molecular target: KA2 ATD (Rattus norvegicus) (UniProt Q63273)
[3] = molecular target: NR2 ATD (Rattus norvegicus) (UniProt Q00960)
Chain of UniProt Q00960 (Q00960 31-394): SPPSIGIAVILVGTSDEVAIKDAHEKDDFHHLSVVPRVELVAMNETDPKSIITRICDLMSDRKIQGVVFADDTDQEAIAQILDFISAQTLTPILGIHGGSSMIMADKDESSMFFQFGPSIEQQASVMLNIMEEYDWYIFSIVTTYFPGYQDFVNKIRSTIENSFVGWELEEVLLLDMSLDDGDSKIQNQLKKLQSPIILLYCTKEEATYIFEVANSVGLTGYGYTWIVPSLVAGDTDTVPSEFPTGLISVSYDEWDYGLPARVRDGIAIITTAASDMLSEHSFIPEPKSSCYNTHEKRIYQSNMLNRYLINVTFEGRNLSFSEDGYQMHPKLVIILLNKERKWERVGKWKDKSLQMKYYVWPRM

Chain of UniProt Q63273 (Q63273 20-402): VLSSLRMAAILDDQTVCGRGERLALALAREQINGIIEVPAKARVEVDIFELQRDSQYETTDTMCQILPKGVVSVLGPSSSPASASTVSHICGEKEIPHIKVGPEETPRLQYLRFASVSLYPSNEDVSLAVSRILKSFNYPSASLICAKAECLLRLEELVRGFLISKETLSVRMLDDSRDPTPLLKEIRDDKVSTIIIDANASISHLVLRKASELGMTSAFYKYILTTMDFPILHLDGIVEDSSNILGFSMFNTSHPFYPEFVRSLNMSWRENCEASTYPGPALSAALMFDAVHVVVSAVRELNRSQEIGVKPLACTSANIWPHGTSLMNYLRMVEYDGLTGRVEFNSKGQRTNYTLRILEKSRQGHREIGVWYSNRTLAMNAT

**Q.** With GluA3 ATD (from UniProt P19492) as the substance, how does the Kd [1] read?
**A.** 1.2 µM

**Q.** With GluR6 ATD (from UniProt P42260) as the substance, how does the Kd [2] read?
**A.** 0.011 µM

**Q.** With NR1 ATD (from UniProt P35439) as the substance, how does the Kd [3] read?
**A.** 0.7 µM
